Target: the molecule itself
Assay: crystal structure; His-SUMO tagged P. shigelloides NagK crystallised by the microbatch method; X-ray data at 100 K

B1: N-acetylglucosamine kinase (NagK) from Plesiomonas shigelloides (enzyme)
chain: MYYGFDIGGTKIEFGAFDADLVRVARERVATPTESYAAFLDAIVTLVNNADAEFGVKGTVGIGIPGIADVETGKLLTSNIPAAMGHTLQRDLEERLQRPVKIENDANCFALSEAWDEDLRGEPSVLGLILGTGVGGGLIFNGKVHSGRANIAGEIGHTRLPYDALKLLGMENAPIFPCGCKNSGCIDNYLSGRGFEQLYDHYFSEKLSAPEIIAHYEQGERRAVQHVERFMELLAICLANIFTCLDPHVVVLGGGLSNFELIYQELPKRLPAHLLHVAKLPKIIKARHGDAGGVRGAAFLNL
notes: N-acetylglucosamine kinase NagK of Plesiomonas shigelloides, codon optimised gene in pOPINS3C; His-SUMO tagged construct (pOPINS3C) used for crystallisation; no cleavage of the tags is described; also called PsNagK; P. shigelloides NagK; source: E. coli BL21 (DE3), purified (HisTrap, Superdex 200 size exclusion); not shown: polyhistidine, N-terminal, kept; SUMO, N-terminal, kept
B1: binds.

Reference: doi:10.1101/2021.09.30.462564 (bioRxiv, 2021)
